Source: paper PMC5389568

B1: E-box 12-mer C/5mC (dsDNA)
DNA 1: TGCCACGTGACC
DNA 2: GGTCACGTGGCA
modifications: 5mC at position 6 of strand 2
B2: E-box 12-mer C/5hmC (dsDNA)
DNA 1: TGCCACGTGACC
DNA 2: GGTCACGTGGCA
modifications: 5hmC at position 6 of strand 2
B3: E-box 12-mer C/5fC (dsDNA)
DNA 1: TGCCACGTGACC
DNA 2: GGTCACGTGGCA
modifications: 5fC at position 6 of strand 2
B4: Control-1 (dsDNA)
DNA 1: GTCAGCGCATGG
DNA 2: CCATGCGCTGAC
B5: Control-2 (dsDNA)
DNA 1: GAGGCGTGGC
DNA 2: TTGCCACGCCTC
B6: E-box 12-mer C/C (dsDNA)
DNA 1: TGCCACGTGACC
DNA 2: GGTCACGTGGCA
B7: E-box 12-mer C/5caC (dsDNA)
DNA 1: TGCCACGTGACC
DNA 2: GGTCACGTGGCA
modifications: 5caC at position 6 of strand 2

Legend:
Experiment in all cases: fluorescence polarization
MAX H28R = MAX H28R (Homo sapiens, UniProt P61244 1-160, H28R)
Chain of MAX H28R (P61244 whole entry H28R): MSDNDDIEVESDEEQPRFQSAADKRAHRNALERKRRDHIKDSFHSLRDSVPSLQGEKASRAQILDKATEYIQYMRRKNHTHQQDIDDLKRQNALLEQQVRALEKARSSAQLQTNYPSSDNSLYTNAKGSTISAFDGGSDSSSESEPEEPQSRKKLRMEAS

MAX full length [1] = biological target: T1, MAX full length (Homo sapiens, UniProt P61244 1-160)
T1 sequence (P61244 whole entry): as the sequence (P61244 whole entry H28R) above, with R28H counted along it

MAX full length [2] = biological target: T1, MAX full length; remark: listed apart in the source

Row | Binder | Kd (MAX H28R) | binding signal (MAX full length [1]) | binding result (MAX full length [2])
1 | B1 | < 5 nM | > 13 fold weaker than C | 
2 | B2 | < 5 nM | > 13 fold weaker than C | 
3 | B3 | < 5 nM | 8 fold weaker than C | 
4 | B4 |  |  | no binding
5 | B5 |  |  | no binding
6 | B6 | < 5 nM |  | 
7 | B7 | < 5 nM |  | 
